The source of these data is PMC12483278, “The viral BCL2 protein BHRF1 of Epstein–Barr virus promotes AIM2 inflammasome activation to facilitate lytic replication” (PLOS Pathogens, 2025).

The test has as its target T1, GST-AIM2 full-length (UniProt O14862 1-343).
T1 construct: also called GST-AIM2 WT; GST-tagged AIM2; source: HEK293T, transfected, in lysate
T1 sequence (looked up): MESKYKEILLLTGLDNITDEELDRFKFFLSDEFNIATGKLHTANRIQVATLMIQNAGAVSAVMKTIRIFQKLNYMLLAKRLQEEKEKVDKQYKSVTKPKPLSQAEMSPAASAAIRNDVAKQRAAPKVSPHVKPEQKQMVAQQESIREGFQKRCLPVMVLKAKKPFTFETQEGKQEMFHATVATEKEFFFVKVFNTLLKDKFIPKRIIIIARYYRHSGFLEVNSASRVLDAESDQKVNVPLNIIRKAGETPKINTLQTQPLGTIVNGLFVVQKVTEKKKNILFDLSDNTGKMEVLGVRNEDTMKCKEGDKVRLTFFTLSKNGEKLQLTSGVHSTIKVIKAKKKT
As to the kind of experiment: pull-down; purified GST-AIM2, Flag-ASC-His and GFP-BHRF1-His mixed and incubated in the absence or presence of purified HSV-1 dsDNA overnight at 4 °C; GST-affinity beads, western blotting. The conditions noted are these: both partners purified. (Immunoblotting shows a protein as a band on a membrane.)

B1: GFP-BHRF1-His (natural protein)
chain: MAYSTREILLALCIRDSRVHGNGTLHPVLELAARETPLRLSPEDTVVLRYHVLLEEIIERNSETFTETWNRFITHTEHVDLDFNSVFLEIFHRGDPSLGRALAWMAWCMHACRTLCCNQSTPYYVVDLSVRGMLEASEGLDGWIHQQGGWSTLIEDNIPGSRRFSWTLFLAGLTLSLLVICSYLFISRGRH
notes: also called purified BHRF1 protein
For B1, the binding result is “binds”.
